# According to patent US11965039B2, “Compstatin analogues and their medical uses” (priority 2018, dated 2024):
# Positions of bridges follow the written chain, without caps; N, C: chain ends.
# Target: Human C3 (Complement tech cat #A113c) (human, UniProt P01024 23-1663)
# Experiment: cell-based or functional assay
# Human C3 (Complement tech cat #A113c), sequence (P01024 23-1663 limits assumed): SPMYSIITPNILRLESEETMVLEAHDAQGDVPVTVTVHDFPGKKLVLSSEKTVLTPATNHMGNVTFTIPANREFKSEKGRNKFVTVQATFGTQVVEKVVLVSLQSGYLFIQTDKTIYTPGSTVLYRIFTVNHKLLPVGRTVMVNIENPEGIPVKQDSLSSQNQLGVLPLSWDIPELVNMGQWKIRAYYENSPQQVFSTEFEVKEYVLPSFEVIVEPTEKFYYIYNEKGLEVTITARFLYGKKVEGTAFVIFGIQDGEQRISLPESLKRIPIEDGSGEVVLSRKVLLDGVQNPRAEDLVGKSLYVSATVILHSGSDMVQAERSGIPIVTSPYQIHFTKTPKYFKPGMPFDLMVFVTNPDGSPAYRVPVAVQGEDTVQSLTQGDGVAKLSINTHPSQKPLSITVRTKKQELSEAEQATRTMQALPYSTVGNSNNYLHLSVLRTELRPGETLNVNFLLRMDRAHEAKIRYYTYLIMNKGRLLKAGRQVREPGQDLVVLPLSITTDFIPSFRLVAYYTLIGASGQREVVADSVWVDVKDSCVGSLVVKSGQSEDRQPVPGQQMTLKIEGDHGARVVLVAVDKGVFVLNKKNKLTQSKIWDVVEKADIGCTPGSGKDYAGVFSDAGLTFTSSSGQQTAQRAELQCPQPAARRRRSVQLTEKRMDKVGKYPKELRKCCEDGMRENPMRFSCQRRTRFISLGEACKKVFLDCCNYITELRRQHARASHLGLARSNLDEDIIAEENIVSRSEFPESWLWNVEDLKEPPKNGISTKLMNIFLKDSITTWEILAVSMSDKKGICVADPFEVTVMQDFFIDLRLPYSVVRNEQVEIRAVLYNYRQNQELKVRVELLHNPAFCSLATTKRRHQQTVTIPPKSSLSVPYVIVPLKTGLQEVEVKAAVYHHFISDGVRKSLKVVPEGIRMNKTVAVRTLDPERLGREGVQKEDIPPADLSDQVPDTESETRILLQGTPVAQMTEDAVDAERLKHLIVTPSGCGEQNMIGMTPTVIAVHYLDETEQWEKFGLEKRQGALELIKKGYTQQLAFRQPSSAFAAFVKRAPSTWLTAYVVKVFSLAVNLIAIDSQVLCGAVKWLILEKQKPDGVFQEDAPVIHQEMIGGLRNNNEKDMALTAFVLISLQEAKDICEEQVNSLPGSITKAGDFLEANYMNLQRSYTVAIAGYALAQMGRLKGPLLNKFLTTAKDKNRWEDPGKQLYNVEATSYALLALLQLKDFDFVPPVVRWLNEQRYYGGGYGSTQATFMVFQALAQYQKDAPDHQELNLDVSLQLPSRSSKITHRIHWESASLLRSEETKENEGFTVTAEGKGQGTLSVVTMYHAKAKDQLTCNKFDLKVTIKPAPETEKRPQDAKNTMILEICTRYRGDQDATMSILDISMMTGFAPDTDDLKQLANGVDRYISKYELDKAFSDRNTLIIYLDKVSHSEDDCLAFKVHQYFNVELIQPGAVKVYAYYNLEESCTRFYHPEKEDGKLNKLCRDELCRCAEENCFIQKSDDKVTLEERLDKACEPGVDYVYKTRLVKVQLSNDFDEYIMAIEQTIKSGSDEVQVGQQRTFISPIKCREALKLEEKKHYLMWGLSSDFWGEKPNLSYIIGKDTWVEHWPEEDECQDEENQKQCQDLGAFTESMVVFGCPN
row,Binder,inhibition of hemolysis IC50 [nM]
1,Ac-ESEICIWQDWGEHRCT-NH2 (disulfide 5-15; SMILES CC[C@H](C)[C@@H]1NC(=O)[C@@H](NC(=O)[C@@H](NC(=O)[C@H](CCC(=O)O)NC(=O)[C@H](CO)NC(=O)[C@H](CCC(=O)O)NC(C)=O)[C@@H](C)CC)CSSC[C@@H](C(=O)N[C@H](C(N)=O)[C@@H](C)O)NC(=O)[C@H](CCCNC(=N)N)NC(=O)[C@H](Cc2c[nH]cn2)NC(=O)[C@H](CCC(=O)O)NC(=O)CNC(=O)[C@H](Cc2c[nH]c3ccccc23)NC(=O)[C@H](CC(=O)O)NC(=O)[C@H](CCC(N)=O)NC(=O)[C@H](Cc2c[nH]c3ccccc23)NC1=O) [Compound 31],< 100
2,Ac-EGEICIWQDWGEHRCT-NH2 (disulfide 5-15; SMILES CC[C@H](C)[C@@H]1NC(=O)[C@@H](NC(=O)[C@@H](NC(=O)[C@H](CCC(=O)O)NC(=O)CNC(=O)[C@H](CCC(=O)O)NC(C)=O)[C@@H](C)CC)CSSC[C@@H](C(=O)N[C@H](C(N)=O)[C@@H](C)O)NC(=O)[C@H](CCCNC(=N)N)NC(=O)[C@H](Cc2c[nH]cn2)NC(=O)[C@H](CCC(=O)O)NC(=O)CNC(=O)[C@H](Cc2c[nH]c3ccccc23)NC(=O)[C@H](CC(=O)O)NC(=O)[C@H](CCC(N)=O)NC(=O)[C@H](Cc2c[nH]c3ccccc23)NC1=O) [Compound 30],< 100
3,Ac-ICIWQDWGEHRCEGE-NH2 (disulfide 2-12; SMILES CC[C@H](C)[C@H](NC(C)=O)C(=O)N[C@H]1CSSC[C@@H](C(=O)N[C@@H](CCC(=O)O)C(=O)NCC(=O)N[C@@H](CCC(=O)O)C(N)=O)NC(=O)[C@H](CCCNC(=N)N)NC(=O)[C@H](Cc2c[nH]cn2)NC(=O)[C@H](CCC(=O)O)NC(=O)CNC(=O)[C@H](Cc2c[nH]c3ccccc23)NC(=O)[C@H](CC(=O)O)NC(=O)[C@H](CCC(N)=O)NC(=O)[C@H](Cc2c[nH]c3ccccc23)NC(=O)[C@H]([C@@H](C)CC)NC1=O) [Compound 27],< 100
4,Ac-ICIWQDWGEHRCTE-NH2 (disulfide 2-12; SMILES CC[C@H](C)[C@H](NC(C)=O)C(=O)N[C@H]1CSSC[C@@H](C(=O)N[C@H](C(=O)N[C@@H](CCC(=O)O)C(N)=O)[C@@H](C)O)NC(=O)[C@H](CCCNC(=N)N)NC(=O)[C@H](Cc2c[nH]cn2)NC(=O)[C@H](CCC(=O)O)NC(=O)CNC(=O)[C@H](Cc2c[nH]c3ccccc23)NC(=O)[C@H](CC(=O)O)NC(=O)[C@H](CCC(N)=O)NC(=O)[C@H](Cc2c[nH]c3ccccc23)NC(=O)[C@H]([C@@H](C)CC)NC1=O) [Compound 26],< 100
5,Ac-SEICIWQDWGEHRCTEA-NH2 (disulfide 4-14; SMILES CC[C@H](C)[C@@H]1NC(=O)[C@@H](NC(=O)[C@@H](NC(=O)[C@H](CCC(=O)O)NC(=O)[C@H](CO)NC(C)=O)[C@@H](C)CC)CSSC[C@@H](C(=O)N[C@H](C(=O)N[C@@H](CCC(=O)O)C(=O)N[C@@H](C)C(N)=O)[C@@H](C)O)NC(=O)[C@H](CCCNC(=N)N)NC(=O)[C@H](Cc2c[nH]cn2)NC(=O)[C@H](CCC(=O)O)NC(=O)CNC(=O)[C@H](Cc2c[nH]c3ccccc23)NC(=O)[C@H](CC(=O)O)NC(=O)[C@H](CCC(N)=O)NC(=O)[C@H](Cc2c[nH]c3ccccc23)NC1=O) [Compound 32],< 100
6,Ac-EICIWQDWGEHRCTE-NH2 (disulfide 3-13; SMILES CC[C@H](C)[C@@H]1NC(=O)[C@@H](NC(=O)[C@@H](NC(=O)[C@H](CCC(=O)O)NC(C)=O)[C@@H](C)CC)CSSC[C@@H](C(=O)N[C@H](C(=O)N[C@@H](CCC(=O)O)C(N)=O)[C@@H](C)O)NC(=O)[C@H](CCCNC(=N)N)NC(=O)[C@H](Cc2c[nH]cn2)NC(=O)[C@H](CCC(=O)O)NC(=O)CNC(=O)[C@H](Cc2c[nH]c3ccccc23)NC(=O)[C@H](CC(=O)O)NC(=O)[C@H](CCC(N)=O)NC(=O)[C@H](Cc2c[nH]c3ccccc23)NC1=O) [Compound 33],< 100
